In the supplement of paper PMC10567573:
± gives the standard deviation.

Test: protein stability index of a GFP-peptide fusion (GPS, HEK-293T) (PSI 1-6); higher = more stable
[1] = treatment: DMSO, c terminus: a fixed tail appended
[2] = treatment: MLN4924 1 uM, 8 h, c terminus: a fixed tail appended
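Note: 24-mer peptide tiles fused after GFP, lentivirally expressed, FACS-sorted into six equal bins by GFP/DsRed ratio, decoded by Illumina sequencing, PSI is the read-weighted mean bin number.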

Sequence	protein stability index [1]	protein stability index [2]	protein stability index (treatment: DMSO, c terminus: native)	protein stability index (treatment: MLN4924 1 uM, 8 h, c terminus: native)
KLKESTVRRRYSDFEWLRSELERE [SNX3]	2.99 ± 0.44	3.13 ± 0.31		
HETESTSDKETDIDDRYGDLDSRT [CDS1]	5.42 ± 0.19	5.6 ± 0.22		
ETPGCATLLPASLFVNSHPGIDRP [DCAF4]	3.61 ± 0.3	3.75 ± 0.1		
MSKLGKFFKGGGSSKSRAAPSPQE [CHMP4C]	3.56 ± 0.33	3.76 ± 0.38		
EKNFFPEYNYDWWEKKPFSEDVNW [CHGB]	2.78 ± 0.54	2.76 ± 0.47		
IGIPLFFLELAVGQRIRRGSIGVW [SLC6A17]	2.51 ± 0.34	2.28 ± 0.23		
CKAFFKRSIQGHNDYICPATNQCT [ESR2]	2.15 ± 0.4	2.45 ± 0.51		
GFQPPSPSLRPRPASSISLPIGHL [DMRTC1]	3.43 ± 0.21	3.44 ± 0.19		
YSENAPFHLSLFQGWMNLLNMAKK [PLD5]	2.08 ± 0.61	2.23 ± 0.13		
LVGDSDVGKGEILASLQDGAAESP [RAB40B]	5.18 ± 0.17	5.36 ± 0.32		
ISQHGDPLLSNTFTETNNHWPQGP [EMID1]	3.87 ± 0.29	4.08 ± 0.16		
LSELPPLEDMGQPPAEEAEQPGAL [FKBP8]	5.59 ± 0.18	5.72 ± 0.24		
SKAVFLWNMDKYTMIRKLEGHHHD [WSB1]	2.24 ± 0.16	2.24 ± 0.33		
STKTPAPCSEFMEPSSDPSLLGEP [SPAG8]	5.24 ± 0.44	5.25 ± 0.081		
NFDDILNVCDDYDVTCNEFFFDRN [KCNG1]	3.4 ± 0.28	3.27 ± 0.49		
LSLLTNRGSKMFKLRQMRVEKFIY [MYOZ1]	2.13 ± 0.34	2.38 ± 0.14		
RYNDFVVFQEMLLHKFPYRMVPAL [SNX8]	2.51 ± 0.41	2.22 ± 0.27		
HSKLTDREKTNICYLSFPDSNSGC [DENND6A]	3.32 ± 0.26	3.39 ± 0.3		

Sequence	protein stability index [1]	protein stability index [2]	protein stability index (treatment: DMSO, c terminus: native)	protein stability index (treatment: MLN4924 1 uM, 8 h, c terminus: native)
MVGGNAVPQRTAGGDVPERELYIR [MYORG]	3.9 ± 0.28	4.29 ± 0.16		
AEWLLAVRSIQPEEKERIGQFVFA [AASDHPPT]	2.29 ± 0.15	2.13 ± 0.18		
GCVSRCWEVQVSPTCPVCKDRASP [TRIM35]	4.04 ± 0.28	4.13 ± 0.44		
QAMEEDLIVGLQGMDLNLEAEALA [HDAC6]	4.8 ± 0.23	4.92 ± 0.25		
EDSIPLRGLSQNLFSNSDHQRDGT [SASS6]	4.94 ± 0.15	4.99 ± 0.2		
PPKSVNPTCMCCQATSSTACHIQ [FAM219A]			2.92 ± 0.29	3.07 ± 0.16
YLPPERIREKSRLFDTKHDVYSFA [RIPK4]	2.62 ± 0.24	2.72 ± 0.25		
PPFMIALACLHVACVVQQKDARQW [CCNC]	3.3 ± 0.18	3.08 ± 0.35		
DEDLDLIPPKSVNPTCMCCQATSS [FAM219A]	4.63 ± 0.33	4.53 ± 0.63		
ATRVAPERLFGSAANVVSAKRNRL [ZBED1]	3.83 ± 0.28	3.82 ± 0.14		
KSLEWSPWNCILLTKDEAAAHLKL [IQUB]	2.41 ± 0.22	2.56 ± 0.11		
AERRRAGRLLLTLPLLRQTAGKVL [ESRRA]	2.348 ± 0.02	2.27 ± 0.23		
PPPVESELALFQMSVLWLEHDRET [KLHL14]	3.18 ± 0.085	3.25 ± 0.23		
LPSVTDIRRPRLYLLQWLKSDKAL [PLK2]	2.33 ± 0.24	2.36 ± 0.49		
APSIDLFSTDAFSSPPQGASPVPE [SNAP91]	4.94 ± 0.34	5.04 ± 0.21		
VEVDESEPYPSQLLKPIPEYSPEE [TRAF3IP2]	5.48 ± 0.44	5.46 ± 0.35		
PKAKAKAKAKAKDQTKAQAAAPAS [RPL29]	5.2 ± 0.22	5.21 ± 0.072		
AIETAMEDLKGHVAETSGETIQGF [TPRG1]	4.82 ± 0.26	5.03 ± 0.3		
